In patent publication US20110086806A1 (published 2011):
Substitutions are numbered along the chain they refer to. Names and notes keep the numbering of the source.

T1: recombinant human IL-23R/Fc chimera (R&D Systems) (human, UniProt Q5VWK5 24-355)
T1 construct: Bought; also called rhIL23RFc
T1 sequence (looked up): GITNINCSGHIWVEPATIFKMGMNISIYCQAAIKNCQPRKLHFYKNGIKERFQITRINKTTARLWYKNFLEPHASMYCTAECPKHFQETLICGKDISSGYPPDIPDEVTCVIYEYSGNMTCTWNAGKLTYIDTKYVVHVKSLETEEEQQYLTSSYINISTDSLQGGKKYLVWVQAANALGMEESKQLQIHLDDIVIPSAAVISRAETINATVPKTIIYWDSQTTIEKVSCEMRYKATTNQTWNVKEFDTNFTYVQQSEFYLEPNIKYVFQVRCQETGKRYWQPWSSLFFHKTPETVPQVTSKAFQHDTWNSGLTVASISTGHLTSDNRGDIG

T2: recombinant human IL-12Rβ2/Fc fusion protein (R&D Systems) (human, UniProt Q99665 24-622, limits assumed)
T2 construct: Bought; also called Il12Rb2
T2 sequence: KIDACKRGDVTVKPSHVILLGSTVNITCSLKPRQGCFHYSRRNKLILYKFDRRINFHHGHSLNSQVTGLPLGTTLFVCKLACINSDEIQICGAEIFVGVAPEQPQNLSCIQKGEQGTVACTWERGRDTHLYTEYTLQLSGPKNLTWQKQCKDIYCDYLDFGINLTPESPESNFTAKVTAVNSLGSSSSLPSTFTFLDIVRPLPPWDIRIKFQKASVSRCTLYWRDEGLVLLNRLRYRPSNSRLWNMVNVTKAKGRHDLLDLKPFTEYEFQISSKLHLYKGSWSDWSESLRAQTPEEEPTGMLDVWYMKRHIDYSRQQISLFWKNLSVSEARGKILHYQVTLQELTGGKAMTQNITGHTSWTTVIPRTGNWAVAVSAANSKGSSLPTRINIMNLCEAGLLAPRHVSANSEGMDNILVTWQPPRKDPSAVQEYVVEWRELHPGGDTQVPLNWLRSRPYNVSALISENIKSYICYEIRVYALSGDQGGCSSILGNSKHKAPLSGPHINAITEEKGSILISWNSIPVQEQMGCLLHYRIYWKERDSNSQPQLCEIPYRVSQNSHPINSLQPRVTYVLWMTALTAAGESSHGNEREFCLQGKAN

B1: 001-69.4G8 ATRIMER complex (designed binder)
chain: EPPTQKPKKIVNAKKDVVNTKMFEELKSRLDTLAQEVALLKEQQALQTVCLKGTKVHMKCFLAFTQTKTFHEASEDCISRGGTLSTPQTGSENDALYEYLRQSVGNEAEIWLGLNGSRRSGVWVDMTGARIAYKNWETEITAQPDGGFGVFGENCAVLSGAANGKWFDKRCRDQLPYICQFGIV
notes: not shown: C-terminal tag: His/Myc (pANA4) or HA-StrepII (pANA10)
B2: 001-87.A9E ATRIMER complex (designed binder)
chain: B1 chain with R118A, R119L, S120T, G121N, V122T, F148L, V150Y, F151W
modifications: Homotrimer of this chain (ATRIMER complex).
notes: not shown: A possible extra N-terminal Ser from the ompA junction is left out
B3: 056-53.H7B ATRIMER complex (designed binder)
chain: B1 chain with G116A, S117G, R119M, S120G, G121L, F148W
modifications: non-covalent homotrimer of the one chain given
notes: not shown: Also the single Ser the vector leaves after the ompA signal
B4: 056-40.A3C ATRIMER complex (designed binder)
chain: B1 chain with R118A, R119T, S120T, G121A, V122T, V150Y
modifications: Homotrimer of this chain (ATRIMER complex).
notes: as for B2
B5: 056-53.H1G ATRIMER complex (designed binder)
chain: B1 chain with G116S, S117G, R118H, R119W, S120R, G121A
modifications: Homotrimer of this chain (ATRIMER complex).
notes: as for B2
B6: 056-45.F7F ATRIMER complex (designed binder)
chain: B1 chain with R118A, R119T, S120T, G121D, V122T, V150Y
modifications: Homotrimer of this chain (ATRIMER complex).
notes: as for B2
B7: 056-53.H7H ATRIMER complex (designed binder)
chain: B1 chain with R118S, R119V, G121D, V150Y
modifications: Homotrimer of this chain (ATRIMER complex).
notes: as for B2
B8: 101-51-1A4 ATRIMER complex (designed binder)
chain: EPPTQKPKKIVNAKKDVVNTKMFEELKSRLDTLAQEVALLKEQQALQTVCLKGTKVHMKCFLAFTQTKTFHEASEDCISRGGTLSTPQTGSENDALYEYLRQSVGNEAEIWLGLNGSALTNTWVDMTGARIAYKNWERPALVQPRGGFGVFGENCAVLSGAANGKWFDKRCRDQLPYICQFGIV
modifications: Forms a homotrimer through the tetranectin coiled coil; one protomer is given.
notes: as for B1
B9: 101-54-4B6 ATRIMER complex (designed binder)
chain: B8 chain with R138P, A140G, L141P, V142H, Q143H, R145M
B10: 105-08-1A8 ATRIMER complex (designed binder)
chain: B1 chain with R118P, S120T, G121N, V122T
B11: 101-51-1A7 ATRIMER complex (designed binder)
chain: B8 chain with A140P, V142Y, R145G, F148W
modifications: Forms a homotrimer through the tetranectin coiled coil; one protomer is given.
notes: as for B1
B12: H4E E137A ATRIMER complex (designed binder)
chain: B1 chain with R118A, R119L, S120T, G121N, V122T, E137A
B13: 101-113-6C108 ATRIMER complex (designed binder)
chain: B8 chain with R138P, A140P, L141P, V142H, Q143H, R145M
modifications: Forms a homotrimer through the tetranectin coiled coil; one protomer is given.
notes: as for B1

Molecular target: T1, recombinant human IL-23R/Fc chimera …
Assay: competition ELISA vs IL-23
Description: Assays were performed generally as follows. Individual wells in Immulon HB2 plates were incubated overnight at 4° C. with 100 μL PBS containing 100 ng of an anti-human IgG Fc (R&D MAB 110 clone 97924). Plates were washed five times with PBS/0.05% Tween 20, and wells were incubated for 1.5 h at RT with 100 μL each of PBS containing 50 ng of recombinant human IL-23R/Fc. […] Competitor was included at a final concentration of 1 μg/mL. After incubation, plates were washed as described and wells were incubated for 40 min at RT with 100 μL each of PBS containing a 1:5000 dilution of streptavidin-HRP conjugate (Pierce catalog no. 21130). After washing, wells were incubated with 100 μL each of TMB (BioFX Lab catalog no. TMBH-1000-0) for up to 30 min at RT. Reactions were stopped with an equal volume of 0.2 M sulfuric acid.
A number of ATRIMER™ polypeptide complexes were tested in competition ELISA more extensively to determine IC50 values.

Binder | IC50 [nM]
B1 | 1.4
B2 | 2.6
B3 | 0.9
B4 | 1.8
B5 | 3.75
B6 | 1.45
B7 | 0.53

Molecular target: T3, recombinant human IL-12Rβ1/Fc fusion protein (R&D Systems) (human, UniProt P42701 24-540, limits assumed)
T3 construct: Bought; also called Il12Rb1
Assay: SPR
Description: (§1) A Biacore 3000 biosensor (GE Healthcare) was used to evaluate the interaction of human IL-12Rβ1/Fc or IL-12Rβ2/Fc with IL-23R binding ATRIMER™ complexes. Immobilization of an anti-human IgG Fc antibody (GE Healthcare) to the CM5 chip (GE Healthcare) was performed using standard amine coupling chemistry, and this modified surface was used to capture recombinant human IL-12Rβ1/Fc or IL-12Rβ2/Fc fusion protein (R&D Systems). A low-density receptor surface, less than 200 RU, was used for all of the analyses. ATRIMER™ complex dilutions (100 nM) were injected over the IL-12R surface at 30 μl/min. Data collection was 3 minutes for the association and 5 minutes for dissociation. The anti-human IgG surface was regenerated with a 30s pulse of 3M magnesium chloride. All sensorgrams were double-referenced against an anti-human IgG Fc antibody surface as well as buffer injections.

Binder | binding result
B8 | no binding (tested: 100 nM)
B9 | no binding (tested: 100 nM)
B10 | no binding (tested: 100 nM)
B11 | no binding (tested: 100 nM)
B12 | no binding (tested: 100 nM)
B13 | no binding (tested: 100 nM)

Molecular target: T2, recombinant human IL-12Rβ2/Fc fusion …
Assay: SPR
Description: as §1

Binder | binding result
B8 | no binding (tested: 100 nM)
B9 | no binding (tested: 100 nM)
B10 | no binding (tested: 100 nM)
B11 | no binding (tested: 100 nM)
B12 | no binding (tested: 100 nM)
B13 | no binding (tested: 100 nM)

Molecular target: T1, recombinant human IL-23R/Fc chimera …
Assay: SPR
Description: A Biacore 3000 biosensor (GE Healthcare) was used to evaluate the interaction of human IL-23R and receptor binders. Immobilization of an anti-human IgG Fc antibody (GE Healthcare) to the CM5 chip (GE Healthcare) was performed using standard amine coupling chemistry, and this modified surface was used to capture a recombinant human IL-23R/Fc fusion protein (R&D Systems). A low-density receptor surface, less than 200 RU, was used for all of the analyses. ATRIMER™ polypeptide complex dilutions (1-500 nM) were injected over the IL-23R surface at 30 μl/min and kinetic constants were derived from the sensorgram data using the Biaevaluation software (version 3.1, GE Healthcare). Data collection was 3 minutes for the association and 5 minutes for dissociation. The anti-human IgG surface was regenerated with a 30s pulse of 3M magnesium chloride. All sensorgrams were double-referenced against an activated and blocked flow-cell as well as buffer injections.

Binder | Ka [M⁻¹] | Kd [nM] | koff [s⁻¹] | kon [M⁻¹ s⁻¹]
B1 | 1.35e+08 | 7.42 | 0.000805 | 109000
B2 | 5.21e+08 | 1.92 | 0.00033 | 172000
B8 | 2.58e+09 | 0.388 | 0.000395 | 1.02e+06
B3 | 1.8e+09 | 0.557 | 0.00024 | 431000
B9 | 1.76e+09 | 0.569 | 0.00039 | 687000
B10 | 2.14e+09 | 0.467 | 0.000344 | 737000
B4 | 5.7e+08 | 1.75 | 0.000373 | 213000
B11 | 2.24e+09 | 0.447 | 0.000187 | 419000
B5 | 1.95e+08 | 5.13 | 0.000489 | 95200
B6 | 7.92e+08 | 1.26 | 0.000376 | 298000
B7 | 6.65e+08 | 1.5 | 0.000385 | 256000
B13 | 1.63e+09 | 0.613 | 0.000382 | 623000

Molecular target: T1, recombinant human IL-23R/Fc chimera …
Assay: competition ELISA vs IL-23
Remark: another data set of the same source

Binder | Ratio IC50 to 056-53.H4E IC50
B8 | 1
B9 | 0.3
B10 | 1.6
B11 | 1
B13 | 0.9
